From patent US20140363377A1 (UNIVERSITY OF BRITISH COLUMBIA, published 2014)

B1: SPARC (Secreted Protein, Acidic, Rich in Cysteines), His-tagged, stably expressed in MIP101 cells (MIP/SP) (other, human, UniProt P09486 18-303, looked up)
chain: APQQEALPDETEVVEETVAEVTEVSVGANPVQVEVGEFDDGAEETEEEVVAENPCQNHHCKHGKVCELDENNTPMCVCQDPTSCPAPIGEFEKVCSNDNKTFDSSCHFFATKCTLEGTKKGHKLHLDYIGPCKYIPPCLDSELTEFPLRMRDWLKNVLVTLYERDEDNNLLTEKQKLRVKKIHENEKRLEAGDHPVELLARDFEKNYNMYIFPVHWQFGQLDQHPIDGYLSHTELAPLRAPLIPMEHCTTRFFETCDLDNDKYIALDEWAGCFGIKQKDIDKDLVI
notes: Present in membrane fractions of MIP/SP cell lysates used for co-immunoprecipitation; also called osteonectin; His-tagged SPARC protein; not shown: His tag
B2: FADD, endogenous, in human cancer cell lysates (other, UniProt Q13158 1-208, looked up)
chain: MDPFLVLLHSVSSSLSSSELTELKFLCLGRVGKRKLERVQSGLDLFSMLLEQNDLEPGHTELLRELLASLRRHDLLRRVDDFEAGAAAGAAPGEEDLCAAFNVICDNVGKDWRRLARQLKVSDTKIDSIEDRYPRNLTERVRESLRIWKNTEKENATVAHLVGALRSCQMNLVADLVQEVQQARDLQNRSGAMSPMSWNSDASTSEAS
notes: also called Fas-associated death domain; p-FADD

Columns and labels:
[1] = target: T1, DR4, endogenous, in human cancer cell lysates (human, UniProt O00220 24-468); test: co-immunoprecipitation from subcellular fractions
T1 construct: also called TRAIL receptor DR4
T1 sequence (looked up): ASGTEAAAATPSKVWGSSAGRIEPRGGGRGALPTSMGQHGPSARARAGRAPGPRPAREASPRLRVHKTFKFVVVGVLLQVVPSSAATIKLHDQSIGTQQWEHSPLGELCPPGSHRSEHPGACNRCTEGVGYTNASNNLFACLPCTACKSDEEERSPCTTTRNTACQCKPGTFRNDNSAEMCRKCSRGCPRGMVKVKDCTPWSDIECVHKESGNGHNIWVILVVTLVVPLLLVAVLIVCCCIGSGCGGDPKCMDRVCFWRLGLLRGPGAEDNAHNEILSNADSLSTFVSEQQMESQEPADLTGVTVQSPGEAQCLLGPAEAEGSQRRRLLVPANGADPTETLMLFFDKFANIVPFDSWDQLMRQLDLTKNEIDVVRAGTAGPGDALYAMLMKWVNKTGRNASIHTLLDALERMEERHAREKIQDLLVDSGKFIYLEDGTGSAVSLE
Protocol: (§1) Cells were separated into nuclear, cytosolic, and membrane fractions using ProteoExtract Subcellular Proteome Extraction Kit (EMD Biosciences Inc.). […] Protein:Antibody mixture was then incubated with 30 μL of Protein A: Protein G (Sigma) (1:1) beads for 4 hours (4° C.).

[2] = target: B1; test: co-immunoprecipitation from subcellular fractions
Protocol: as §1

Binder	binding result [1]	binding result [2]
B1	no binding	–
B2	–	no binding
